Biological target: recombinant wild type echinenone-binding protein from Evechinus chloroticus (apo-rEBP) (Evechinus chloroticus)
Experiment: SEC; HiPrep 16/60 Sephacryl S-100 HR gel-permeation column, non-reducing conditions, 50 mM HEPES pH 8.0, 0.1 M NaCl, 10% v/v glycerol; final purification step; molecular weights estimated from the manufacturer's column standard curve

Substance: recombinant wild type echinenone-binding protein from Evechinus chloroticus (apo-rEBP) (natural protein)
- stoichiometry N: 2
